# Data taken from US20260055200A1, “COMBINATION THERAPIES” (Alligator Bioscience AB, priority 2022, published 2026).
# Assays:
# [1] = system: CD40-mediated immune cell activation; conditions: cited from earlier work
# [2] = system: tumour associated macrophages (TAMs); conditions: TAMs from human prostate and ovarian tumour samples; cited from earlier work
# [3] = system: whole blood transcriptome; assay: RNA-sequencing of peripheral whole blood of MB49 tumour-bearing hCD40tg mice; assay type: in vivo, mouse; conditions: for Differentially expressed genes, p. adj < 0.05 / Differentially expressed genes, p. adj < 0.05 & FC > 2: of 14485 total genes
# Text: Peripheral blood was collected from the mice at the end of the first cycle and subjected to RNA-sequencing to identify pharmacodynamic biomarkers. RNA was extracted from whole blood after red blood cell lysis using GLOBINclear™ Kit, mouse/rat (AM1981, Invitrogen), and Mouse RiboPure™-Blood RNA Isolation Kit (AM1951, Invitrogen) according to the manufacturer's instruction. Purified RNA was stored in RNase-free microfuge tubes (AM12425, Invitrogen), and frozen at −80 C until further use.
# RNA library preparation and sequencing was performed by the Center for Translational Genomics (CTG, Lund University). RNA integrity was analyzed with the TapeStation 4200 (Agilent Technologies), using Agilent RNA ScreenTape and reagents (5067-5576, 5067-5577, Agilent Technologies). RNA concentration was analyzed with the Qubit Flex (Q33327 Invitrogen Thermo Fisher Scientific), using the QuantIT RNA HS Assay Kit (Q33140, Life Technologies). cDNA sequencing libraries were prepared using TruSeq® Stranded mRNA Library Prep kit (20020594, Illumina). The libraries were sequenced in a NovaSeq 6000 System (20012850, Illumina), using the NovaSeq 6000 SP Reagent Kit, 300 cycles v1.5 20028400). The reads were aligned to the mouse reference genome GRCm38 (mm10) using the STAR software (v 2.5.0a.13).
# R (v4.0.3) and R studio (v1.4.1103) were used to perform quality control and thresholding, normalization, dimensionality reduction, and visualization as well as differential gene expression analysis. Protein coding genes with a minimum of 5 reads in 3 or more samples were kept for analysis. For data visualization, filtered raw counts were normalized using the variance-stabilizing-transformation method in the DESeq2 package (version 1.38.3).
# Principal component analysis (PCA) was used to visualize the data, and assess the effects of the treatment at transcriptomic level.
# To identify differentially expressed genes among treatment groups, filtered raw counts were normalized using the median of ratios method in the DESeq2 package. Treatment groups were compared using the negative binomial Wald's test (adjusted-p.value [adj-p.val]<0.05, fold change>2).
# Pathway enrichment analysis was performed using EnrichR (v3.0) by querying differentially expressed genes among treatment groups onto the gene ontology database (GO, GO_bioprocess_2018). Re-occurring and highly ranked pathways (adj.p-value<0.05) were selected and harmonized throughout the samples using gene set variation transformation (GSVA). The resulting GSVA scores were plotted as a spider plot for pathway activity comparison among the groups.
# [4] = system: MB49-FFX-ACQ bladder carcinoma cells; assay: Chemotherapy-resistant MB49-FFX-ACQ tumour model in hCD40tg mice; assay type: in vivo, mouse; conditions: FIG. 7B/7C
# Description: Note: All mice were dosed with flat doses and mg/kg doses reported herein are based on an average mouse weight of 20 g (0.02 kg).
# As FOLFIRINOX is composed of four individual components, it was dosed over the course of two days, for a total of three cycles. Mice first received oxaliplatin followed by irinotecan, followed the day after by folinic acid and 2 hours after that, mice were dosed with 5-fluorouracil.
# Three days following the initiation of the dosing of FOLFIRINOX, mitazalimab was administered in 5% glucose (dextrose buffer) at 5 mg/kg.
# The dosing regimen applied in the two efficacy studies detailing number of doses and their relation to one another is outlined in FIG. 5. […]
# On day 0, ten- to twelve-week-old female hCD40tg mice were injected subcutaneously on the right hind flank with 0.4×10^6 MB49-FOLFIRINOX-ACQ in a volume of 100 μl PBS. […] Controls or antibodies were administered as outlined in Table 24, and mice were monitored shortly following each treatment to detect potential signs of toxicity. Tumor volume was measured three times weekly with a calliper and calculated as: ((width/2×length/2×height/2)×[…]). […]
# Collected data was analyzed using Kaplan Meier and Log-rank (Mantel-Cox) for survival and Mann-Whitney, non-parametric, 2-tail for FACS data and tumor growth using GraphPad Prism program (*, p<0.05; **, p<0.01). […]
molecule,measurement,setting,value
"Mitazalimab: agonistic, human monoclonal (IgG1) antibody targeting CD40 (antibody, chains of the INN, looked up, V domains shown) VH: EVQLLESGGGLVQPGGSLRLSCAASGFTFSTYGMHWVRQAPGKGLEWLSYISGGSSYIFYADSVRGRFTISRDNSENALYLQMNSLRAEDTAVYYCARILRGGSGMDLWGQGTLVTVSS VL: QSVLTQPPSASGTPGQRVTISCTGSSSNIGAGYNVYWYQQLPGTAPKLLIYGNINRPSGVPDRFSGSKSGTSASLAISGLRSEDEADYYCAAWDKSISGLVFGGGTKLTVL",NK cells and T cells in peripheral blood after infusion,[1]; all doses except 75 μg/kg,decreased
same,B cells in peripheral blood after IV administration,"[1]; all doses tested, dose-dependent recovery",margination of B cells was observed
same,"time of peak of peripheral MCP-1, IP-10 and MIP-1B chemokines post-infusion","[1]; in vivo, ip",1 to 4 h
same,CD40 receptor occupancy on B cells,[1]; in vivo,dose dependent
same,IL-6 levels following infusion,[1]; in vivo,not elevated
same,duration of CD40 engagement post administration,[1]; in vivo,through Day 8
same,recovery of NK cell and T cell levels,[1]; in vivo,fully recovered by study Day 8
same,polarization of TAMs (upregulation of e.g. CD83),[2],from a more immune-suppressive phenotype into a more immune-inflammatory phenotype
same,expression of genes involved in response to type-1 IFN and TLR signaling,[3]; alone or in combination with FOLFIRINOX,high expression
same,"Differentially expressed genes, p. adj < 0.05",[3]; vs Folfirinox,3953
same,"Differentially expressed genes, p. adj < 0.05 & FC > 2",[3]; vs Folfirinox,1717
same,"Differentially expressed genes, p. adj < 0.05",[3]; vs Mita-Folfirinox,453
same,"Differentially expressed genes, p. adj < 0.05 & FC > 2",[3]; vs Mita-Folfirinox,221
same,"Differentially expressed genes, p. adj < 0.05",[3]; vs untreated,2114
same,"Differentially expressed genes, p. adj < 0.05 & FC > 2",[3]; vs untreated,849
same,effect on tumour growth in chemo-resistant tumours,[4],synergises with FOLFIRINOX
